Data published in US20170369576A1 (UBI US, published 2017).

Columns and labels:
[1] = biological target: T1, human CD4, membrane-bound on cells (HPB-ALL cells, blood/PBMC CD4+ T cells, assay target cells) (human, UniProt P01730 26-458); test: cell-based or functional assay
[2] = biological target: T1, human CD4, membrane-bound on cells …; test: cell-based or functional assay; remark: listed apart in the source
[3] = biological target: T1, human CD4, membrane-bound on cells …; test: cell-based or functional assay; remark: listed apart in the source
[4] = biological target: T1, human CD4, membrane-bound on cells …; test: competition FACS on HPB-ALL cells; reference dB4
[5] = biological target: T2, recombinant soluble CD4 (UniProt P01730 26-390, limits assumed); test: competition ELISA on coated sCD4/p2704a mixture; reference dB4
T2 construct: also called sCD4; rsCD4

[6] = biological target: T1, human CD4, membrane-bound on cells …; test: competition FACS on HPB-ALL cells; inhibition of dB4-Alexa (250 ng/mL)
Description: On V-bottomed microplates, aliquots of 2×10⁵ cells in 0.1 mL per well were added, centrifuged, and liquid discarded. […] The cells were washed once and the liquid discarded after centrifugation. To each well, aliquots of 200 μL of binding buffer were added and transferred to microdilution tubes for flow cytometric analysis. The binding intensity (mean fluorescence intensity, MFI), based on an inlet of 5,000 cells per sample, was read on FACS.

[7] = biological target: T2, recombinant soluble CD4; test: competition ELISA on coated sCD4/p2704a mixture; inhibition of B4-biotin (10 µg/mL)

B1: murine monoclonal antibody B4 (mAb B4) (antibody, V domains shown)
VH: QVQLQQSGPELVKPGASVRMSCKASGYTFTDYVIHWVKQRTGQGLEWIGEIYPGSGSAYSNAKFKDKATLTADKSSNTAYMQLSSLTSEDSAVYFCARRGNGTGFAYWGQGTLVTVSA
VL: DIVLTQSPASLAVSLGQRATISCKAGQSVDYDGDSYMNWYQQKPGQPPKLLIYVASNLESGIPARFSGSGSGTDFTLNIHPVEEEDAATYYCQQSYKDPLTFGAGTKLELK
modifications: N-glycosylated at Asn101 in the Fv
Q: What does the source list for B1?
A: IC50 of entry inhibition, second cluster, panel of over 850 Env pseudotype viruses [1]: ~10 µg/mL; IC50 entry inhibition, PhenoSense, control virus 92HT594 [2]: 0.021 µg/mL; IC50 entry inhibition, PhenoSense, control virus JRCSF [2]: 0.034 µg/mL; IC50 entry inhibition, PhenoSense, control virus JRFL [2]: 0.074 µg/mL; IC50 entry inhibition, PhenoSense, isolate 92/RW/008 (clade A) [2]: 0.026 µg/mL; IC50 entry inhibition, PhenoSense, isolate 92/RW/024 (clade A) [2]: 0.055 µg/mL; IC50 entry inhibition, PhenoSense, isolate 92/TH/005 (clade EA) [2]: 0.012 µg/mL; IC50 entry inhibition, PhenoSense, isolate 92/TH/006 (clade EA) [2]: 0.022 µg/mL; IC50 entry inhibition, PhenoSense, isolate 92/TH/007 (clade EA) [2]: 0.013 µg/mL; IC50 entry inhibition, PhenoSense, isolate 92/TH/009 (clade EA) [2]: 0.021 µg/mL; IC50 entry inhibition, PhenoSense, isolate 92/TH/019 (clade EA) [2]: 0.022 µg/mL; IC50 entry inhibition, PhenoSense, isolate 92/TH/020 (clade EA) [2]: 0.015 µg/mL; IC50 entry inhibition, PhenoSense, isolate 92/TH/021 (clade EA) [2]: 0.017 µg/mL; IC50 entry inhibition, PhenoSense, isolate 92/TH/022 (clade EA) [2]: 0.012 µg/mL; IC50 entry inhibition, PhenoSense, isolate 92/TH/024 (clade EA) [2]: 0.01 µg/mL; IC50 entry inhibition, PhenoSense, isolate 92/UG/001 (clade D) [2]: 0.018 µg/mL; IC50 entry inhibition, PhenoSense, isolate 92/UG/005 (clade D) [2]: 0.019 µg/mL; IC50 entry inhibition, PhenoSense, isolate 92/UG/021 (clade D) [2]: 0.017 µg/mL; IC50 entry inhibition, PhenoSense, isolate 92/UG/024 (clade D) [2]: 0.04 µg/mL; IC50 entry inhibition, PhenoSense, isolate 92/UG/035 (clade D) [2]: 0.011 µg/mL; IC50 entry inhibition, PhenoSense, isolate 92/UG/038 (clade D) [2]: 0.014 µg/mL; IC50 entry inhibition, PhenoSense, isolate 92/UG/046 (clade D) [2]: 0.015 µg/mL; IC50 entry inhibition, PhenoSense, isolate 93/BR/019 (clade BF) [2]: 0.013 µg/mL; IC50 entry inhibition, PhenoSense, isolate 93/BR/020 (clade F) [2]: 0.024 µg/mL; IC50 entry inhibition, PhenoSense, isolate 93/IN/101 (clade C) [2]: 0.016 µg/mL; IC50 entry inhibition, PhenoSense, isolate 93/RW/029 (clade A) [2]: 0.019 µg/mL; IC50 entry inhibition, PhenoSense, isolate 93/TH/057 (clade E) [2]: 0.023 µg/mL; IC50 entry inhibition, PhenoSense, isolate 93/TH/305 (clade E) [2]: 0.021 µg/mL; IC50 entry inhibition, PhenoSense, isolate 93/UG/053 (clade D) [2]: 0.02 µg/mL; IC50 entry inhibition, PhenoSense, isolate 93/UG/065 (clade D) [2]: 0.015 µg/mL; IC50 entry inhibition, PhenoSense, isolate 93/UG/067 (clade D) [2]: 0.016 µg/mL; IC50 entry inhibition, PhenoSense, isolate 93/UG/070 (clade D) [2]: 0.011 µg/mL; IC50 entry inhibition, PhenoSense, isolate 93/UG/077 (clade A) [2]: 0.012 µg/mL; IC50 entry inhibition, PhenoSense, isolate 93/UG/082 (clade D) [2]: 0.016 µg/mL; IC50 entry inhibition, PhenoSense, isolate 93/UG/086 (clade D) [2]: 0.015 µg/mL; IC50 entry inhibition, PhenoSense, isolate 94/UG/103 (clade A) [2]: 0.021 µg/mL; IC50 entry inhibition, PhenoSense, isolate 94/UG/105 (clade D) [2]: 0.021 µg/mL; IC50 entry inhibition, PhenoSense, isolate 94/UG/114 (clade D) [2]: 0.015 µg/mL; IC50 entry inhibition, PhenoSense, isolate 94/UG/117 (clade D) [2]: 0.017 µg/mL; IC50 entry inhibition, PhenoSense, isolate 94/UG/118 (clade D) [2]: 0.02 µg/mL; IC50 entry inhibition, PhenoSense, isolate 10215-6 (clade C) [2]: 0.018 µg/mL; IC50 entry inhibition, PhenoSense, isolate 10362 (clade C) [2]: 0.02 µg/mL; IC50 entry inhibition, PhenoSense, isolate 11657-3 (clade C) [2]: 0.025 µg/mL; IC50 entry inhibition, PhenoSense, isolate 20635-4 (clade C) [2]: 0.02 µg/mL; IC50 entry inhibition, PhenoSense, isolate 21068 (clade C) [2]: 0.011 µg/mL; IC50 entry inhibition, PhenoSense, isolate CA1 (clade A) [2]: 0.011 µg/mL; IC50 entry inhibition, PhenoSense, isolate CA2 (clade A) [2]: 0.018 µg/mL; IC50 entry inhibition, PhenoSense, isolate CA3 (clade A) [2]: 0.019 µg/mL; IC50 entry inhibition, PhenoSense, isolate CC1 (clade C) [2]: 0.016 µg/mL; IC50 entry inhibition, PhenoSense, isolate CC2 (clade C) [2]: 0.021 µg/mL; IC50 entry inhibition, PhenoSense, isolate CC3 (clade C) [2]: 0.012 µg/mL; IC50 entry inhibition, PhenoSense, isolate CC4 (clade C) [2]: 0.013 µg/mL; IC50 entry inhibition, PhenoSense, isolate CC5 (clade C) [2]: 0.019 µg/mL; IC50 entry inhibition, PhenoSense, isolate CC6 (clade C) [2]: 0.018 µg/mL; IC50 entry inhibition, PhenoSense, isolate CC7 (clade C) [2]: 0.013 µg/mL; IC50 entry inhibition, PhenoSense, isolate CC8 (clade C) [2]: 0.019 µg/mL; IC50 entry inhibition, PhenoSense, isolate CC9 (clade C) [2]: 0.02 µg/mL; IC50 entry inhibition, PhenoSense, isolate CC10 (clade C) [2]: 0.015 µg/mL; IC50 entry inhibition, PhenoSense, isolate CD1 (clade D) [2]: 0.016 µg/mL; IC50 entry inhibition, PhenoSense, isolate CF2 (clade F) [2]: 0.016 µg/mL; IC50 entry inhibition, PhenoSense, isolate CF3 (clade F) [2]: 0.024 µg/mL; IC50 entry inhibition, PhenoSense, isolate CF4 (clade F) [2]: 0.019 µg/mL; IC50 entry inhibition, PhenoSense, isolate CF5 (clade F) [2]: 0.018 µg/mL; IC50 entry inhibition, PhenoSense, isolate CF6 (clade F) [2]: 0.018 µg/mL; IC50 entry inhibition, PhenoSense, isolate CF7 (clade F) [2]: 0.019 µg/mL; IC50 entry inhibition, PhenoSense, isolate CF8 (clade F) [2]: 0.017 µg/mL; IC50 entry inhibition, PhenoSense, isolate CG1 (clade G) [2]: 0.018 µg/mL; IC50 entry inhibition, PhenoSense, isolate CG2 (clade G) [2]: 0.027 µg/mL; IC50 entry inhibition, PhenoSense, isolate CG3 (clade G) [2]: 0.016 µg/mL; IC50 entry inhibition, PhenoSense, isolate CG4 (clade G) [2]: 0.013 µg/mL; IC50 entry inhibition, PhenoSense, isolate CJ1 (clade J) [2]: 0.018 µg/mL; IC50 entry inhibition, PhenoSense, isolate CJ2 (clade J) [2]: 0.019 µg/mL; IC50 entry inhibition, PhenoSense, isolate CMU02 (clade EA) [2]: 0.011 µg/mL; IC50 entry inhibition, PhenoSense, isolate CMU06 (clade E) [2]: 0.026 µg/mL; IC50 entry inhibition, PhenoSense, isolate MW/93/959 (clade C) [2]: 0.019 µg/mL; IC50 entry inhibition, PhenoSense, isolate MW/93/960 (clade C) [2]: 0.01 µg/mL; IC50 entry inhibition, PhenoSense, isolate QZ4589 (clade E?) [2]: 0.036 µg/mL; average IC50 entry inhibition, PhenoSense, all viruses of Table 3 [2]: 0.018 µg/mL; IC50 of HIV entry inhibition, pseudotype virus 92TH594 (R5/X4), U87-CD4+/CCR5+/CXCR4+ cells [3]: 0.05 µg/mL; IC50 of HIV entry inhibition, pseudotype virus HXB2 (X4), U87-CD4+/CCR5+/CXCR4+ cells [3]: 0.4 µg/mL; IC50 of HIV entry inhibition, pseudotype virus JRCSF (R5), U87-CD4+/CCR5+/CXCR4+ cells [3]: 0.04 µg/mL; IC50 ratio of B4 to dB4 [4]: 0.69 ratio; IC50 ratio of B4 to dB4 [5]: 0.68 ratio; IC50 [6]: 0.135 µg/mL; IC50 [7]: 5.54 µg/mL
